Among the data in paper PMC3781837 are binding values, retold here.

The target in the data set is WhiA (Streptomyces venezuelae) (UniProt F2RGQ4). The data set can be described thus: DNase I footprinting. The settings on record: DNase I footprinting per Sure Track kit (Amersham); buffer, salt, pH and temperature not given in the material.
Sequence of UniProt F2RGQ4 (F2RGQ4 whole entry): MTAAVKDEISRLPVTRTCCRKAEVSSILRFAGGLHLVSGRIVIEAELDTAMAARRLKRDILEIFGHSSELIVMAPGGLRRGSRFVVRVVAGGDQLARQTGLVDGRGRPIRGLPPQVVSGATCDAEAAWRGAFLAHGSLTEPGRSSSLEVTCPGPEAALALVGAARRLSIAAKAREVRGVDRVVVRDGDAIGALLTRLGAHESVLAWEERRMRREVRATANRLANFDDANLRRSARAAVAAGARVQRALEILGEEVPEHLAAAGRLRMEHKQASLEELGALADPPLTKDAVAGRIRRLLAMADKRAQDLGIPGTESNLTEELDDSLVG
For the sequence “AGCATCCGGTGCACCCTCCCAGTGTCGCACCCGAAGGTGTCGAATCCCGGGAGTGGGCCCGCCGCGACACGCGGAGGGCCCGGAATCGCCTTTAACCCAAGATCTAGTGGTTGGATGGCATCGG (double strand) [nrdR promoter probe]”, the binding result was “binds”.
On to “CCGGAATTCCCACTCAAAAGGCTGGACATTCTCCAGATCAAACGGGCATACGCTCGATGACACGCCGCTTCGGCCCCTAGGATTCCCTCTAACACCTCACCGGTCTCATTCGACAGGAAACCCATGAGCGACACATCCTCCCCCTTCGGCTTCGAGCTCGTGCGGCGCGGTTAGGATCCGCG (double strand) [filP promoter probe]”, for which the binding result is “binds”.
In the case of “GAACTGGTGGAGAAGTCGGCGAAGCGCTTGCGCGGGGCCGTCCTGATCGGTGCCGACCGCGCCCTGATCCGCGAAGCCCTGGCGCGACACGCCCCGGAGGTACCGGTGGTGGACCTCGACCGGACCGACACTGGGGCGATGTCCGAGGCGGTC (double strand) [ftsW promoter probe]”, the binding entry is given as “binds”.
The result for “GACATACCCACTCGGACTACTCCAGTCGACACGCCGAGGGTTTGCCCCTTTTGTAGGGATATCGACCCGTTCGACGACAGCTGGAGGCACCGTGCGGCCGGGAGGCTACGACTACGACAC (double strand) [cslA promoter probe]” reads “binds”.
Take “GACGTGCCGCGCATCCGGGCGGCCACGGACCTGGGCAACGTCCCGATGGCCGCGGCGTTCGCCCGGGCGGGTTACGACGCCTTCGAGCACGCGATCAACTACGTGTGGGACGCGCCGGGCGTGGCGGGTCCCTGACTGCCAGGATGGGGGCGTAGGTCCGTCGACGAGGGGATTTGGCGTGCTCTTCGAGGTGTGGGC (double strand) [treZ promoter probe]”: the binding entry is “binds”.
As for “GCGCCGCAGCCCGGAGAAACCGAGGGCTTCTCCCCGCAGCGTCATTTGGAGGTTTTGGGACGACACGCCCCTAAACTCGCCCTGGACGTGGTGCTGGCCGACGAGGCCGCCGTGCCCGACCGCGAGTCCCTCGCCGACGCCGCCAAGCGGCTCGGTGCCGC (double strand) [whiAp2 promoter probe]”, the binding entry is “binds”.
In the case of “GCTGCTCCACTCCACCAACGTAGGTCGGGAAGGGGCGGGAACCGGGTCCGGGACACGCCCTTTGGGTGACCTTGCCCCCGAGAACGACCGAAGGTCGGCGTCG (double strand) [sven4724-sven4725 intergenic probe]”, the binding result is on record as “binds”.
In the case of “GGCGGTACGGGAGCGGCCGACGCAGACTGGGAGGAGCGCCCTCTTTCCCGGAGTGCTGGAGGAACCACGGTATGACCGACCTCGCCATCGAGACCGAGGGCCTGGTCAAGGTCTTCGGCAGCAACCGCGCCGTCGACGGGATCGACCTCCGCGTCCCCGCCGGAATCGTCTACGGAGTCCTTGGCCCCAACGGCGC (double strand) [sven3535 promoter probe]”, the binding result is reported as “no binding”.
The result for “GTCTCGCGCATGTGAGGGGCGGTGCCGCGCGGGGCACCGGGCCCGGCGGGCCCGGGCCGCACCGACGCGCCGGAATGATCGCTAAGAGGAAATTGTCCGATTAGCGCGTATCGTCGGCCCATGCCCACGCCATACGGATCCCGCGGCGGCATGGCGTTCAGCGCGGACGAGCTGCGTGTGCTCCGCCGTGCCCTCGCCATC (double strand) [sven3229 promoter probe]” reads “no binding”.
